For test [1], the target named is Sncp (Snc proteins, secretory vesicle SNARE) (yeast (endogenous in the yeast strains of Table 1)) (UniProt P31109). The experiment in a line: co-IP.
Test [2] deals with T1, Tlg2p (yeast (endogenous in the yeast strains), UniProt Q08144 1-397).
T1 sequence: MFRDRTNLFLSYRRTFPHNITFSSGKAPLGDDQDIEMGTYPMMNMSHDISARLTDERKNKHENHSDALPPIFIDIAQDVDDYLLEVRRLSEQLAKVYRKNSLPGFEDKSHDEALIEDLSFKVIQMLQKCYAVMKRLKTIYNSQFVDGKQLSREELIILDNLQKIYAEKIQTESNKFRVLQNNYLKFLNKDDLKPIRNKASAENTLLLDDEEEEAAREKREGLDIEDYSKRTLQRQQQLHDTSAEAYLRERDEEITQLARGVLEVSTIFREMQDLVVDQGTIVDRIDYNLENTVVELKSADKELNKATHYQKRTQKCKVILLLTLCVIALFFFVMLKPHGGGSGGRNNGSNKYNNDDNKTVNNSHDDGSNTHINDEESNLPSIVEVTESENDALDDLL
The experiment in a line: co-IP.

Chain of Sncp (Snc proteins, secretory vesicle SNARE) (yeast (endogenous in the yeast strains of Table 1)) (P31109 whole entry): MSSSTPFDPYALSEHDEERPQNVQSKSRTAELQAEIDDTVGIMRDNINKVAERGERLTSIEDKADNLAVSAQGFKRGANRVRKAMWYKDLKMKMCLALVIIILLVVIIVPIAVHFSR

The molecule “Ssop (Sso proteins, plasma membrane SNARE) (from UniProt P32867 1-290) (natural protein)” gave a percent of total Ssop coprecipitating with Sncp in test [1] of 0.7%.

B1: HA-Snc2p (COOH-terminally triple-HA-tagged Sncp) (natural protein)
chain: MSSSVPYDPYVPPEESNSGANPNSQNKTAALRQEIDDTVGIMRDNINKVAERGERLTSIEDKADNLAISAQGFKRGANRVRKQMWWKDLKMRMCLFLVVIILLVVIIVPIVVHFS
Regarding B1, the “fold less bound to Tlg2p than to Ssop” value in test [2] came out at 10 fold.

For the origin of these results see paper PMC2192655 (The Journal of Cell Biology, 2000).
